Test results taken from patent US20160200830A1 (NANJING LEGEND BIOTECH, published 2016).
Substitutions are numbered along the chain they refer to.

Legend:
human transferrin [1] = biological target: T1, human transferrin (human, UniProt P02787 20-698); test: phage display panning and phage ELISA
T1 construct: Immobilized on a CM5 chip by amine coupling (SPR) or coated on a plate (phage ELISA)
Experimental: The llama immune phage display library was panned against transferrin that was conjugated to M-280 beads (Invitrogen). Approximately 3×10¹¹ phages were added to the beads and incubated at 37° C. for 2 hours for antigen binding. After disposal of unbound phages, the beads were washed six times with phosphate buffered saline supplemented with 0.05% Tween 20 (PBST) for round one, and the washes were increased by one for each additional round. Phages were eluted by 10 min incubation with 100 μl 100 mM triethylamine, and the eluate was subsequently neutralized with 200 μl 1 M Tris-HCl (pH 7.5). Phages were amplified as described above, but on a smaller scale. After two rounds of panning, eluted phages were used to infect exponentially growing E. coli TG1. Individual colonies were used in phage enzyme-linked immunosorbent assay (ELISA).
For phage ELISA, a 96-well microliter plate was coated overnight with 2 μg/ml human transferrin and then blocked with 4% […] phosphate buffered saline (MPBS) for 2 hours at 37° C. Phage from individual clones were pre-blocked with 4% MPBS overnight, added to the pre-blocked wells and incubated for 1 hour. Phage ELISA was performed using the GE Healthcare Detection Module Recombinant Phage Antibody System (GE Healthcare, Uppsala, Sweden) and positive phage clones were sequenced.

human transferrin [2] = biological target: T1, human transferrin; test: SPR, Biacore T200, transferrin immobilized on CM5 chip, sdAb as analyte
Experimental: Experiments were performed using a BIAcore T200 optical sensor platform and research grade CM5 sensor chips (GE Healthcare). Human transferrin was immobilized on the sensor chip surface by standard amine coupling. All experiments were carried out in HEPES buffer [10 mM HEPES (pH 7.4), 150 mM NaCl, 3.4 mM EDTA, 0.005% Tween 20] at 25° C. Antibodies were injected at serial dilutions ranging from 0.25 nM to 16 nM at a flow rate of 30 μl/min unless otherwise indicated. The amount of bound analyte after subtraction from the blank control surface is shown as relative response units (RU). The double referenced sensorgrams from each injection series were analyzed for binding kinetics using BIA evaluation software (GE Healthcare). Dissociation constants (KDs) were calculated from the on- and off-rates (kₒₙ and koff, respectively), as determined by global fitting of the experimental data to a 1:1 Langmuir binding model (Chi²<1).

monkey transferrin = monkey transferrin (monkey); test: SPR, transferrin immobilized, sdAb as analyte
human transferrin [3] = biological target: T1, human transferrin; test: SPR, transferrin immobilized, sdAb as analyte

T1 sequence (P02787 20-698 limits assumed): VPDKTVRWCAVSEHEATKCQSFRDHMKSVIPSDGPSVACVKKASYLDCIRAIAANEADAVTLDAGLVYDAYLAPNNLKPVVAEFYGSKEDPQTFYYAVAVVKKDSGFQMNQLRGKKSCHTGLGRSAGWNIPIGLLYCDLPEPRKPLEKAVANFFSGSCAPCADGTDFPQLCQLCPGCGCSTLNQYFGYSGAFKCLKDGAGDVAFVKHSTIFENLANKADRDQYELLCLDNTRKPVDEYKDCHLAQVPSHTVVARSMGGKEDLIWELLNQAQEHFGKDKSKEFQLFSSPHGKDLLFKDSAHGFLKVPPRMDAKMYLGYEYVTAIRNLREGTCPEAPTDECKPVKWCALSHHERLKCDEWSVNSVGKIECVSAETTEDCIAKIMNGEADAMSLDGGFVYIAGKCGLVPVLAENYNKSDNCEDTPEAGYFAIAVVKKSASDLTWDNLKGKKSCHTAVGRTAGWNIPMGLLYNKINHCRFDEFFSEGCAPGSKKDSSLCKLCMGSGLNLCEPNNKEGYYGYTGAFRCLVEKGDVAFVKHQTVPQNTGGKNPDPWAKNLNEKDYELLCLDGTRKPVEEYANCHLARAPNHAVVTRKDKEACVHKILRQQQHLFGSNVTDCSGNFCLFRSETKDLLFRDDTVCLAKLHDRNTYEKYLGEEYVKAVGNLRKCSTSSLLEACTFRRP

B1: sdAb A69441 (VHH)
VHH: QVKLEESGGGLVQPGGSLRLSCAASGSIFSIKVMGWYRQAPGKQRELVADITSGGSTDYSDSVKGRFTISRDNAKNTVYLQMNSLKPEDTAVYYCNADLGCSGAGSCPDYWGQGTQVTVSS
B1: binds (human transferrin [1]).

B2: sdAb A60401 (VHH)
VHH: QVKLEESGGGLVQAGGSLRLSCEASGNVFTIAAMGWFRQAPGKERELVAGITTGGSTNYADSVKGRFTISRDNAQNTMYLQMNSLRPEDTAAYSCNAVTKWAARVGGSAEYEYWGQGTQVTVSS
notes: Llama sdAb, made in E. coli periplasm, His-tagged, for SPR; not shown: C-terminal histidine tag added by vector pSJF2H
Binder B2 has a Kd (human transferrin [2]) of 0.0671 nM, a koff (human transferrin [2]) of 6.22e-05 s⁻¹ and a kon (human transferrin [2]) of 927000 M⁻¹ s⁻¹.

B3: sdAb A13376 (VHH)
VHH: B2 VHH with E23A, G35A, F37Y, A92V, S94F
B3: binds (human transferrin [1]).

B4: sdAb A69476 (VHH)
VHH: QVKLEESGGGLVQPGGSLRLSCAASGNVFTIDAMGWYRQAPGKEREVVVGMTNGGKTNYADSVKGRFTISRDNAKNTVSLQMNSLKPEDTAVYYCYARSKLIATINNPYDYWGQGTQVTVSS
B4: binds (human transferrin [1]).

B5: sdAb A60219 (VHH)
VHH: QVQLVESGGGLVQAGGSLRLSCVASGSGFGINGVIWYRQAPGKQRELVALIKSDGYTNYRESVKGRFTISRDDAKNTVWLQMNALEPEDTGVYYCKTPGVPFGQGTQVTVSS
notes: Llama sdAb, made in E. coli periplasm, His-tagged, for SPR; also called A602019; not shown: C-terminal histidine tag added by vector pSJF2H
B5 was tested, and the Kd (human transferrin [2]) was 0.0131 nM, the koff (human transferrin [2]) was 0.000674 s⁻¹ and the kon (human transferrin [2]) was 5.14e+07 M⁻¹ s⁻¹.

B6: sdAb A12690 (VHH)
VHH: B5 VHH with A14P, Q44R
B6: binds (human transferrin [1]).

B7: sdAb A12659 (VHH)
VHH: B5 VHH with Q1E, S7C, K75R
B7: binds (human transferrin [1]).

B8: sdAb A13154 (VHH)
VHH: B5 VHH with A14P, N83S
B8: binds (human transferrin [1]).

B9: sdAb A12692 (VHH)
VHH: B5 VHH with Q1E, S7C
B9: binds (human transferrin [1]).

B10: sdAb A13355 (VHH)
VHH: B5 VHH with Q3K, V5E, K64R
B10: binds (human transferrin [1]).

B11: sdAb A12666 (VHH)
VHH: B5 VHH with Q3K, V5E, I31V
B11: binds (human transferrin [1]).

B12: sdAb A13152 (VHH)
VHH: B5 VHH with S25P
B12: binds (human transferrin [1]).

B13: sdAb A69449 (VHH)
VHH: QVQLVESGGGVVQAGGSLRLSCVASGSVFSIDAMGWYRQAPGNQRELVAAMTNAGSTNYADSVKGRFTISRDNAENTVYLQMNSLKPEDTAVYYCNARSKLIARINNPYEYWGQGTQVTVSS
notes: Llama sdAb, made in E. coli periplasm, His-tagged, for SPR; also called A60449; not shown: C-terminal histidine tag added by vector pSJF2H
Work on B13 yielded a Kd (monkey transferrin) of 1.12 nM, a koff (monkey transferrin) of 0.000529 s⁻¹ and a kon (monkey transferrin) of 471000 M⁻¹ s⁻¹. It also gave a Kd (human transferrin [3]) of 2.03 nM, a koff (human transferrin [3]) of 0.000695 s⁻¹ and a kon (human transferrin [3]) of 342000 M⁻¹ s⁻¹.

B14: sdAb A69433 (VHH)
VHH: QVKLEESGGGLVQAGGSLRLSCVASGNVFGIDAVGWYRQAPGKQRELVAATTTSGSSTNYADSVKGRFTISRDIAKNTVYLQMDSLKPEDTAVYYCYARPKQATLIRDDYWGQGTQVTVSS
notes: as for B2
B14 gave a Kd (monkey transferrin) of 2.4 nM, a koff (monkey transferrin) of 0.000593 s⁻¹ and a kon (monkey transferrin) of 247000 M⁻¹ s⁻¹. It also gave a Kd (human transferrin [3]) of 5.76 nM, a koff (human transferrin [3]) of 0.000642 s⁻¹ and a kon (human transferrin [3]) of 111000 M⁻¹ s⁻¹.

B15: sdAb A69447 (VHH)
VHH: QVKLEESGGGSVQAGGSLRLSCTGSGSIFPLNDMGWYRQAPGKQRELVATITRGGTTNYADSVKGRFTISRDSNAKNTVYLQMNSLKVEDTAVYYCNMDNRVGGSYWGQGTQVTVSS
notes: as for B2
Binder B15 has a Kd (monkey transferrin) of 0.25 nM, a koff (monkey transferrin) of 7.58e-05 s⁻¹ and a kon (monkey transferrin) of 304000 M⁻¹ s⁻¹. For the same binder, the Kd (human transferrin [3]) was 1.03 nM, the koff (human transferrin [3]) was 0.000209 s⁻¹ and the kon (human transferrin [3]) was 203000 M⁻¹ s⁻¹.
